Reference: patent CN108239149A (NANJING LEGEND BIOTECHNOLOGY CO LTD, dated 2018)

Key:
[1] = target: T1, 融合至人IgG1 Fc段的人PD-L1胞外结构域的重组蛋白PD-L1-Fc (GenScript, Z03371) (human, UniProt Q9NZQ7 19-238, biotin-labelled in the PD-1 competition ELISA (site not stated)); experiment: indirect ELISA, PD-L1-Fc coated at 0.5 μg/ml, antibody titrated
T1 construct: extracellular domain; Bought reagent (GenScript Z03371); also called 重组PD-L1-Fc; 生物素标记的PD-L1-Fc; not shown: Human IgG1 Fc segment

[2] = target: 人PD-L1 expressed on cells (表达PD-L1的CHO细胞) (human) (UniProt Q9NZQ7); experiment: cell-based or functional assay
[3] = target: T1, 融合至人IgG1 Fc段的人PD-L1胞外结构域的重组蛋白PD-L1-Fc …; experiment: competition ELISA: antibody titrated against biotinylated PD-L1-Fc binding to coated human PD-1

T1 sequence (Q9NZQ7 19-238 limits assumed, one chain of several): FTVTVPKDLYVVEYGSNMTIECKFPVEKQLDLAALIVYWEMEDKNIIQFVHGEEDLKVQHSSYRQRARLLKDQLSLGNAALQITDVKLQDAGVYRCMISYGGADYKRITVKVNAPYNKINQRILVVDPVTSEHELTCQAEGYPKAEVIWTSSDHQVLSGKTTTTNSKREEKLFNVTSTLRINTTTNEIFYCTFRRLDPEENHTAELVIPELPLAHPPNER

Row | EC50 [1] | IL-2分泌 (混合淋巴细胞反应) EC50 [2] | 相对光单位(RLU) NFAT报告细胞 EC50 [2] | IC50 [3] | Binder
1 | 5.31 ng/mL | 0.359 µg/mL | 0.359 µg/mL | – | 18B7F4G8 (antibody, V domains shown, Mouse hybridoma clone; Detected with goat anti-mouse IgG) VH: DVQLQESGPDLVKPSQSLSLTCTVTGYSITSGYTWHWIRQFPGNKLEWMGYIHYSGSTKYNPSLKSRFSITRDTSKNQFFLQLNSMTAEDTATYYCARNSLFASWGHGTLVTVSA VL: DIVLTQSPASLAVSLGQRATISCRASESVDTYGDSFMHWFQQKPGQPPKLLIYRASNLESGIPARFSGSGSRTDFTLTINPVEADDVATYYCQQSNEAPYTFGGGTKLEIK
2 | 4.67 ng/mL | 0.0947 µg/mL | 0.576 µg/mL | 0.32 µg/mL | 53C1F3D4 (antibody, V domains shown, Mouse hybridoma clone; Made recombinantly as variable region + constant region in HEK293-6E) VH: QVQLQQSGNELARPGASVRLSCKASGYIFTGYGITWVRQRPGQGLEWIGEIFPRRVNTYYSEKFKGRATLTADISSSTAYMELRSLTSEDSAVYFCARDYDPYFALDYWGQGTSVTVSS VL: DIVMTQSHKFMSTSVGDRVSITCKASQDVSTAVDWYQQKPGQSPKLLIYSASYRYTGVPDRFTGSGSGTAFTFTISGEQAEDLAVYYCQQHYSIPFTFGGGTKLEIK
3 | 6.3 ng/mL | 0.209 µg/mL | 0.883 µg/mL | 0.4 µg/mL | 51F3D2G4 (antibody, V domains shown, Mouse hybridoma clone; Made recombinantly as variable region + constant region in HEK293-6E) VH: QVQLQQSGAELARPGASVRLSCKASGYIFTGYGISWVKQRTGQGLEWIGEIFPRTANTYFNEKFKGKATLTADKSSSTAYMELRSLTSEDSAVYFCARDYDPYYALDYWGQGTSVTVSS VL: DIVMTQSHKFMSTSVGDRVTITCKASQDVSTAVDWYQQKPGQSPKLLIYSASYRYTGVPDRFTGSGSGTAFTFTISSEQAEDLAVYYCQQHYSVPFTFGGGTKLEIK
4 | 4.58 ng/mL | 0.235 µg/mL | 1.17 µg/mL | 0.48 µg/mL | 42G2D7C3 (antibody, V domains shown, Made recombinantly as variable region + constant region; also called 42G2D7D3) VH: DVQLLESGPGLVKPSQSLSLTCSVTGYSITSGYYWNWIRQFPGNNLEWMGSINYDGSNDYNPSLQDRISITRDTSKNQFFLKLNSVTTEDTATYYCARRLDYWGQGTTLIVSS VL: QIVLTQSPAIMSASPGEKVTISCSASSFINYMYWYQQKPGSSPKPWILRTSTLASGVPARFSGSGSGTSYSLTISSMEAEDAATYYCQQYHSYPLTFGAGTKLELK
5 | 4.98 ng/mL | 0.101 µg/mL | 0.751 µg/mL | 0.39 µg/mL | 29A8H8C7 (antibody, V domains shown, Mouse hybridoma clone; Made recombinantly as variable region + constant region in HEK293-6E) VH: DVQLQGSGPGLVKPSQSLSLTCTVTGYSITSDFAWDWIRQFPGNKLEWMGHIRFSGTTSYNPSLKSRISITRDTSKNQFFLQLNSVTSEDTATYYCARSTLITKGFFDYWGQGTTLTVSS VL: DIVMTQSHKFMSTSVGGRVSITCKASQDVSPAVAWYQQKPGQSPKLLIYWASTRHTGVPDRFTGSGSGTDFTLTISSVQTEDLALYYCQQHYSTPWTFGGGTKLEIK
